According to a protein production outcome set (Wang et al. 2014):

Assay: label from the status in PepcDB records

Row | Sequence | protein production
1 | MNVMRHSWLAVAGIAGLLAFPPVDACTLWGAAGTASMEGSLLAKNRDWKPDHAQSLRLLHPEHGYAYLGLYADNGSEPGIKAGVNQKGLAVVAAEASSLPRALRADSARHGVLTRLLRDYGSLDEVASAADKLFAQARPVFLLLADAGGLMQVEIGQHGRYRLIRQQSGTLAHTNHYADTSLLDGAQTIGPSSQARLERIRFLLDQHPAHTLSEFERLSRDRHDGPDNSLWRSGREHTLAGWRIALPAGAPPRLQLTLANPGRAERDGDYALDSAFWAQPARTLLPLEHHHHHH | not failed
2 | MNVSKILVSPTVTTNVLRIFAPRLPQIGASLLVQKKWALRSKKFYRFYSEKNSGEMPPKKEADSSGKASNKSTISSIDNSQPPPPSNTNDKTKQANVAVSHAMLATREQEANKDLTSPDAQAAFYKLLLQSNYPQYVVSRFETPGIASSPECMELYMEALQRIGRHSEADAVRQNLLTASSAGAVNPSLASSSSNQSGYHGNFPSMYSPLYGSRKEPLHVVVSESTFTVVSRWVKWLLVFGILTYSFSEGFKYITENTTLLKSSEVADKSVDVAKTNVKFDDVCGCDEARAELEEIVDFLKDPTKYESLGGKLPKGVLLTGPPGTGKTLLARATAGEAGVDFFFMSGSEFDEVYVGVGAKRIRDLFAQARSRAPAIIFIDELDAIGGKRNPKDQAYAKQTLNQLLVELDGFSQTSGIIIIGATNFPEALDKALTRPGRFDKVVNVDLPDVRGRADILKHHMKKITLADNVDPTIIARGTPGLSGAELANLVNQAAVYACQKNAVSVDMSHFEWAKDKILMGAERKTMVLTDAARKATAFHEAGHAIMAKYTNGATPLYKATILPRGRALGITFQLPEMDKVDITKRECQARLDVCMGGKIAEELIYGKDNTTSGCGSDLQSATGTARAMVTQYGMSDDVGPVNLSENWESWSNKIRDIADNEVIELLKDSEERARRLLTKKNVELHRLAQGLIEYETLDAHEIEQVCKGEKLDKLKTSTNTVVEGPDSDERKDIGDDKPKIPTMLNA | failed
3 | MNVTLGTGDGADFWVFGFGSLIWKPDIPFEECRDAFITGWRRRFWQHSTDHRGTESYPGRVATLVLAEQPGERCYGRAYRVDNEAAADVLAYLDEREKQGYSRLALPVYDARSAEQITKHALVYIAREDNPHFVRAADERQIPVLCRIIARARGPSGDNATYLFRLKESLDEIGVRDEHVDELVFGVRAELEALASACSESTPHGVAVAPTAASFDAVPASSDDLR | failed
4 | MNYAEKKKNWIKLGIFALFAGGILAYIGISNADIHWGGFISMMIFFAFTYYLGAFYAAKKSNSFSDMIVAKRSMPFFVGMVTMAATWVGGGYINGTAESTYSDGLIWAQAPWGYALSLIIGGIFFARKMRRHQFMTIIDPLEQRFGKRMAGVLYIPALLGELFWSAAILTALGTTFGMILNIDFQTSIILSAMIAIAYTVAGGMWAVAFTDVFQMIVILLGLFLVVPFVLSNVGALDSVWANYRHDFGSSANLLPPLDGWKNPDWGNLFWNWWDNALLLIFGGIAWQVYFQRVLSAKSESAAMWQSIIAGVICIIAAIPCVIIGAAGNSTDWSLFGASAPDNPAMILPQTLAYLTPGIIAGLGLGAIAAAVMSSMDSSILSASSMAAWNIYRPLIKPKATQKQLQKVVKRSIILFGAGAAVIALNVKSVYTLWYLASDLVYCILFPQLTMALFYKRANLYGSIAGFAVAVILRLGGGEPAFGIPPLLPYPMIEDGTVLFPFRTLAAVTAFMTIFAVSELTQRKCPPKQLVLPQEKQKDDRAA | failed
5 | MNYKKHRGETLFKRWFLNNRFSIVLLNILLFFLIIWVFNKISFVLNPAWVFFSAILPPLLLALIQYYIMNPVVDWFEKKFRVPRVLTIIVLFLFVVIAMIWIINILVPIAQHQINSLVKNWPHIWNDAVNATQNALRDPRLHSVKGSIQGMIDDTQKTLFKSGQNTVNSTLGNISSAVSIITMIVMTLLTAPFILFFMLKDGHQLRPYITKFVPETWQQSFSKLLYDINYAVASYIRGQITVAFWVGVMFTIGYIIIGLPYGLALAILAGFMNLIPYFGTPLALIPVIVISIMTSGSMLVKVLIVFAIEQTIETRILSPLVMGNKMQMHPVTTILLLIGASSVWGLWGVIFGIPIYAVLKIIVSRVYNYYRRESDIFSNEDAASLTTGDADESKK | failed
6 | MNYLPMMIVFPLIMAIIMNLLHGKEKAVKYITFITAAILIILPFISQYGYYYFGGHGVVNGWVSGIAYLYNPAKQAIIVTLSLIASLVLITGMGEKLKNNMFVTLSLMGFASIAAIVLADDIFNLYVFFEIVSIVQAGLVFLSGTEEAYKAGLRYMIMGNVAAALMLLGIAFLLASTGTLNITDMKHYLLVDNPMIYGGLLLLIVGLAYGAGLPPFHNVKADLYARSKGFISAMLQTYSKFVLVGLMIIILKLFNGLDYFASAHAVLIALGVLAMVFGVVMALLQSDYKKLLAYHAISQGGYVATGLALGTPLGIVAGIFHAINHVIYKSALFLGAYIVSCKRGSNLHKLGGLLPLMPSVAFMVLCAKLAISGIPPFNGFQSKWMLAQAAMQVNMPEIAIIMIIVSIGTFVSMMKAFYLIYLKPVDEETLKEYQNKEVPKLAVFSLFVLTALCIIIGLYPDIVTNYLWDYAKELGVNYYLK | failed
7 | MNYQDVLDFWFAPDHTNFWFAKDSLFDDEIRTQFSTVHQQATQAELWSWRQTVEGRLAEIIVLDQFSRNLYRDQAQAFAQDSMALALAQEAITQQLDAQLSPEQRSFLYMPFMHSESKLIHEFALKLFQKLGNEINLSFEKKHKVIIDQFGRYPHRNAILGRQSTPEELEFLTQPNSHF | failed
8 | MNYQKMNYQKLGVDILALSGGKQNVSKLTHCATRLRFEFNDSHAVQAEAIAKLPGVISVVDRGGQFQVVIGNDVQITYRAILNEIGEMNGQRTSDKNKQQKKGGIFSQIISVISTTFTPVIPAITGAGMIKALLAILKLTGLISADSTTYRLLDTISDAAFFFLPVLLAYGASIKFACNPILAMTIAGALLHPNLAQLLASGGPISFIGIPVRLADYAGSVLPIILTVWIMSYIERFAEKISPSMITFFTKPMIVLLFTAPLALVVIGPFGIFLNDLVASGAAIIDGKASWLIPMLMGGLQPFLVITGTAWAMTPIATSQLTRNGFEMINGPGMLASNIAQGAATLCVAFKTKNKNLKQLASSAGFTALLGITEPSLYGVTLKLKKPLIAAMIGGGCAGIYAGLAGLVRYAFVSPGLAALPAFIGENPMNIVHALITCAIAIVVTFALTWIMGFDDPVDETDNAQTDSTQSDARQSAPAANTTQKSQATENHAEPQTILSPLSGKLVALSDINDDVFSQGLLGQGVAIIPDNGEVVAPVSGEIITFLESKHAVGIRTDSGLELLIHVGLDTVNLNGKHFTGYIKPGDRVTAGDRLISFDLHEITRLGYDPITPVVIINSDEYASVVCTVPQPIAPMDTIINVNA | failed
9 | MNYRLLVFDFDGTLADSEASIMGAMQLVAKEFGLSEVDCVKARPTIGLSLLRTIEIGLGLEAGDAAAAVELYRRYYKEIAFDSTCLFPGVKETQEQLRQNSLLAIASSKSRQGLLSRMRQFGIVDHFSFIAGAQDISGL | failed
10 | MPAFSLLPKPSALLPLLLAAAFLPPAFVHAEEEAAKDQPQAPVERPAVSERSQDEAKGLERQLPEDGQQILKAGDESFLTLWLPANTAEAEGVVILVPGDGESPDWPQAIGPLRRKLPDAGWQTLSLALPDPQSTAPVTRPAESAASASADKDASAADSASKPDVKGESGNAPAPESTAEAGSGEPAQSEDQAPPPAIDPVEQRKAHAERVMARLQASIDLALQHEPKSVVLLGHGTGAYWAARYLAEKEPAEIHNLLLVAAEVPRDFRPALEDMVPKLKLATGDFYYRDARADREAARLRMQAGKRQKHPAYVQIAMQALPADPKAEQEQLYRRIRGWLSLHLQADAQKPAE | failed
11 | MPAKTALIYSNDFSRFSYGDDHPFKIQRIILARELMGMLGLTELPGACIHDCPRADEASLLTFHSPDYLQRLREFSDSDEPRADFRYGLGDLDNPVFKGFYDWAILGVGGTMEAARLVTEEGYDIAFTMAGGWHHAHRSKASGFSYLNDAVIAINTLVAKGLRVAYLDIDAHHGDGVQEAFYDTDQVLTVSIHESGIYFFPGTGFEDEIGRGQGRGYSVNVPLVAHTDDALFMKAFDEVAYPLIAAYNPDVLVTQLGVDTFRTDPLTRLEITTHSYTYILRKLKALKIPWVAVGGGGYNMINVARGWTLAWGIMNGVELPPKLPAQFVDMIAPMGHPNRMLLDAMHWAEEDDRNRALDAVERSIAAIRETVFPVIIGNYAAAAGE | failed
12 | MPALDLIRPSVTAMRVIASVNAEFARELKLPPHIRSLGLISADSDDVTYIAADEATKQAMVEVVYGRSLYAGAAHGPSPTAGEVLIMLGGPNPAEVRAGLDAMVANIENGAAFQWANDAENTAFLAHVVSRTGSYLSSTAGITLGDPMAYLVAPPLEATYGIDAALKSADVQLVTYVPPPSETNYSAAFLTGSQAACKAACNAFTDAVLEIARNPIQRA | not failed
